Entries after “also recorded” stand apart in the source; their conditions may differ.
T1: ART2b(R204K) (Rattus norvegicus, UniProt P20974, R204K)
T1 construct: made in house; host or cells: rat mammary adenocarcinoma (NMU) cells, pMAMneo vector, dexamethasone-induced; released with PI-PLC
T1 sequence (P20974 21-246 R204K limits assumed): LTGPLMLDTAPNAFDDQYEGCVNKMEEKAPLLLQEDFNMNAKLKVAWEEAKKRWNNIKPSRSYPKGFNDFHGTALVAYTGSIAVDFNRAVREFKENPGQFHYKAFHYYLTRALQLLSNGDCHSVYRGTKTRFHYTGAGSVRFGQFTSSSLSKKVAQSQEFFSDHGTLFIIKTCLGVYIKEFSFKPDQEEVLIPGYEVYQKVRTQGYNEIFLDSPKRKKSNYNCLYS


Key:
[1] = NAD glycohydrolase (NADase) assay; assay type: biochemical, rat; details: for NADase activity during the course of the reaction (rate of NAD hydrolysis): change over the course of the reaction; for NADase activity: PI-PLC released recombinant protein from NMU cells, 0.1 mM [carbonyl-^14C]NAD, 1 hour at 30° C.
Description: (§1) NADase activity was measured in DPBS with 0.1 mM [carbonyl-^14C]NAD (8×10^4 cpm) for 1 hour at 30° C., (total volume=150,u). Samples (50,u) were applied to AG1-X2 (BIO-RAD, Hercules, Calif.) columns (0.4×4 cm), equilibrated and eluted with water for liquid scintillation counting as described (Moss et al., Proc Natl Acad Sci U S A 73(12):4424-7, 1976). Transferase activity was assayed similarly with or without 20 mM agmatine as ADP-ribose acceptor and with [adenine-^14C]NAD substituted for [carbonyl-^14C]NAD.

[2] = Auto-ADP-ribosylation of PI-PLC released recombinant ART2 proteins with [^32P]NAD, SDS-PAGE; assay type: biochemical, rat; details: for auto-ADP-ribosylation at multiple sites (decrease in mobility on SDS-PAGE): 10 μM [^32P]NAD, followed by 5 mM unlabeled NAD; for auto-ADP-ribosylation: [^32P]NAD added to PI-PLC released protein, SDS-PAGE
Description: To investigate the structural basis for these differences in catalytic function, site-specific mutagenesis was employed with synthesis of recombinant ART2b and ART2a proteins in rat adenocarcinoma cells (NMU) under a dexamethasone-sensitive promoter. After induction and expression of the GPI-anchored proteins, cells were incubated with PI-PLC to cleave the GPI anchor and then [^32P]-NAD was added to the medium to promote auto-ADP-ribosylation of the released protein (FIG. 2).
To assess the ability of ART2 proteins, ART2a and ART2b, to be auto-ADP-ribosylated at multiple sites, proteins were incubated first with 10 μM [^32P]NAD, followed by addition of 5 mM unlabeled NAD and further incubation (FIG. 4). […] It is unlikely that auto-modification was due to non-enzymatic addition of [^32P]ADP-ribose since reactions were carried out in the presence of 1 mM ADP-ribose, or due to NAD binding, since the radiolabel was not displaced by incubation with 5 mM NAD.

ART2b(R204K) = target: T1, ART2b(R204K); assay: Incubation of wildtype ART2b with ART2b(R204K) and millimolar NAD (intermolecular modification); assay type: biochemical; details: millimolar NAD, with or without ART2b(R204K)
Description: The blots contain samples from cells expressing wild type ART2b (lanes 1), ART2b(R204K) (lanes 2), or a mixtures of samples containing ART2b and ART2b(R204K) (lanes 3). Samples were incubated with or without 10 μM [^32P]NAD followed by either TCA precipitation or further incubation with 5 mM NAD. The radiolabeled wild type ART2b and ART2b(R204K) proteins were combined and then incubated with or without 5 mM NAD.
To investigate whether ART2b(R204K) could be modified, wildtype ART2b was incubated with its mutant ART2b(R204K) and millimolar NAD (FIG. 5).

[3] = ADP-ribosyltransferase assay with agmatine as ADP-ribose acceptor; assay type: biochemical, rat; details: 20 mM agmatine as ADP-ribose acceptor
Description: as §1

| Molecule | NADase activity during the course of the reaction (rate of NAD hydrolysis) [1] | auto-ADP-ribosylation at multiple sites (decrease in mobility on SDS-PAGE) [2] | auto-ADP-ribosylation [2] | modification (mobility on SDS-PAGE) after incubation of wildtype ART2b with ART2b(R204K) and NAD (ART2b(R204K)) | NADase activity [1] | transfer of ADP-ribose to agmatine [3] |
| --- | --- | --- | --- | --- | --- | --- |
| ART2b(R204K): rat ART2b with arginine-to-lysine substitution at position 204 (protein) LTGPLMLDTAPNAFDDQYEGCVNKMEEKAPLLLQEDFNMNAKLKVAWEEAKKRWNNIKPSRSYPKGFNDFHGTALVAYTGSIAVDFNRAVREFKENPGQFHYKAFHYYLTRALQLLSNGDCHSVYRGTKTRFHYTGAGSVRFGQFTSSSLSKKVAQSQEFFSDHGTLFIIKTCLGVYIKEFSFKPDQEEVLIPGYEVYQKVRTQGYNEIFLDSPKRKKSNYNCLYS | did not change | not modified by incubation with NAD | abolished both the primary and secondary modifications | not modified by wildtype ART2b in an intermolecular reaction | – | – |
| ART2a(Y204R): rat ART2a with tyrosine-to-arginine substitution at position 204 (protein) LTGPLMLDTAPNAFDDQYEGCVNKMEEKAPLLLKEDFNKSEKLKVAWEEAKKRWNNIKPSMSYPKGFNDFHGTALVAYTGSIGVDFNRAVREFKENPGQFHYKAFHYYLTRALQLLSNGDCHSVYRGTKTRFHYTGAGSVRFGQFTSSSLSKTVAQSPEFFSDDGTLFIIKTCLGVYIKEFSFRPDQEEVLIPGYEVYQKVRTQGYNEIFLDSPKRKKSNYNCLYS | – | exhibited auto-ADP-ribosylation following incubation with 5 mM NAD | auto-ADP-ribosylation of both glycosylated 33 kDa and nonglycosylated 29 kDa forms was observed | – | – | – |
| ART2b(R81K): rat ART2b with arginine-to-lysine substitution at position 81 (protein) LTGPLMLDTAPNAFDDQYEGCVNKMEEKAPLLLQEDFNMNAKLKVAWEEAKKRWNNIKPSKSYPKGFNDFHGTALVAYTGSIAVDFNRAVREFKENPGQFHYKAFHYYLTRALQLLSNGDCHSVYRGTKTRFHYTGAGSVRFGQFTSSSLSKKVAQSQEFFSDHGTLFIIKTCLGVYIKEFSFRPDQEEVLIPGYEVYQKVRTQGYNEIFLDSPKRKKSNYNCLYS | – | exhibited auto-ADP-ribosylation following incubation with 5 mM NAD | no effect on auto-ADP-ribosylation | – | – | – |
| ART2a(M81R): rat ART2a with methionine-to-arginine substitution at position 81 (protein) LTGPLMLDTAPNAFDDQYEGCVNKMEEKAPLLLKEDFNKSEKLKVAWEEAKKRWNNIKPSRSYPKGFNDFHGTALVAYTGSIGVDFNRAVREFKENPGQFHYKAFHYYLTRALQLLSNGDCHSVYRGTKTRFHYTGAGSVRFGQFTSSSLSKTVAQSPEFFSDDGTLFIIKTCLGVYIKEFSFYPDQEEVLIPGYEVYQKVRTQGYNEIFLDSPKRKKSNYNCLYS | – | – | had no effect | – | – | – |
| ART2a(59MNA61,Y204R): rat ART2a with K59M, S60N, E61A and Y204R substitutions, non-glycosylated (protein, UniProt P17982 21-246, looked up, variant K59M S60N E61A Y204R) T-cell …: LTGPLMLDTAPNAFDDQYEGCVNKMEEKAPLLLKEDFNMNAKLKVAWEEAKKRWNNIKPSMSYPKGFNDFHGTALVAYTGSIGVDFNRAVREFKENPGQFHYKAFHYYLTRALQLLSNGDCHSVYRGTKTRFHYTGAGSVRFGQFTSSSLSKTVAQSPEFFSDDGTLFIIKTCLGVYIKEFSFRPDQEEVLIPGYEVYQKVRTQGYNEIFLDSPKRKKSNYNCLYS | – | exhibited auto-ADP-ribosylation following incubation with 5 mM NAD | – | – | – | – |
| ART2b(R204W): rat ART2b with arginine-to-tryptophan substitution at position 204 (protein, UniProt P20974 21-246, looked up, variant R204W) T-cell …: LTGPLMLDTAPNAFDDQYEGCVNKMEEKAPLLLQEDFNMNAKLKVAWEEAKKRWNNIKPSRSYPKGFNDFHGTALVAYTGSIAVDFNRAVREFKENPGQFHYKAFHYYLTRALQLLSNGDCHSVYRGTKTRFHYTGAGSVRFGQFTSSSLSKKVAQSQEFFSDHGTLFIIKTCLGVYIKEFSFWPDQEEVLIPGYEVYQKVRTQGYNEIFLDSPKRKKSNYNCLYS | decreased during the course of the reaction | weak auto-ADP-ribosylation activity at multiple sites | auto-ADP-ribosylation at non-arginine sites | – | greater than that of wild-type ART2b | unable to transfer ADP-ribose to agmatine |
| ART2a(M81R,Y204R): rat ART2a with M81R and Y204R substitutions (protein, UniProt P17982 21-246, looked up, variant M81R Y204R) T-cell …: LTGPLMLDTAPNAFDDQYEGCVNKMEEKAPLLLKEDFNKSEKLKVAWEEAKKRWNNIKPSRSYPKGFNDFHGTALVAYTGSIGVDFNRAVREFKENPGQFHYKAFHYYLTRALQLLSNGDCHSVYRGTKTRFHYTGAGSVRFGQFTSSSLSKTVAQSPEFFSDDGTLFIIKTCLGVYIKEFSFRPDQEEVLIPGYEVYQKVRTQGYNEIFLDSPKRKKSNYNCLYS | – | exhibited auto-ADP-ribosylation following incubation with 5 mM NAD | auto-ADP-ribosylation of both glycosylated 33 kDa and nonglycosylated 29 kDa forms was observed | – | – | – |
| ART2a: rat ADP-ribosyltransferase ART2a (RT6.1), SEQ ID NO:11, wild type (protein, listed as Rattus norvegicus) MPSNICKFFLTWWLIQQVTGLTGPLMLDTAPNAFDDQYEGCVNKMEEKAPLLLKEDFNKSEKLKVAWEEAKKRWNNIKPSMSYPKGFNDFHGTALVAYTGSIGVDFNRAVREFKENPGQFHYKAFHYYLTRALQLLSNGDCHSVYRGTKTRFHYTGAGSVRFGQFTSSSLSKTVAQSPEFFSDDGTLFIIKTCLGVYIKEFSFYPDQEEVLIPGYEVYQKVRTQGYNEIFLDSPKRKKSNYNCLYSSAGTRESCVSLFLVVLTSLLVQLLCLAEP | – | – | not significantly auto-modified | – | have NADase activity | – |
| ART2b: rat ADP-ribosyltransferase ART2b (RT6.2), SEQ ID NO:12, wild type (protein, listed as Rattus norvegicus) MPSNICKFFLTWWLIQQVTGLTGPLMLDTAPNAFDDQYEGCVNKMEEKAPLLLQEDFNMNAKLKVAWEEAKKRWNNIKPSRSYPKGFNDFHGTALVAYTGSIAVDFNRAVREFKENPGQFHYKAFHYYLTRALQLLSNGDCHSVYRGTKTRFHYTGAGSVRFGQFTSSSLSKKVAQSQEFFSDHGTLFIIKTCLGVYIKEFSFRPDQEEVLIPGYEVYQKVRTQGYNEIFLDSPKRKKSNYNCLYSSAGARESCVSLFLVVLPSLLVQLLCLAEP | decreased during the course of the reaction | exhibited auto-ADP-ribosylation following incubation with 5 mM NAD | significantly auto-ADP-ribosylated; also recorded: Multiple species of auto-ADP-ribosylated | exhibited decreasing mobility on SDS-PAGE | have NADase activity | unable to transfer ADP-ribose to agmatine |

From patent US7923535B2, “Tryptophan as a functional replacement for ADP-ribose-arginine in recombinant proteins” (The United States of America as represented by the …, priority 2002, dated 2011)
